B1: Activin B (protein, UniProt P09529 293-407, looked up)
Inhibin beta B chain: GLECDGRTNLCCRQQFFIDFRLIGWNDWIIAPTGYYGNYCEGSCPAYLAGVPGSASSFHTAVVNQYRMRGLNPGTVNSCCIPTKLSTMSMLYFDDEYNIVKRDVPNMIVEECGCA
B2: Activin A (protein, UniProt P08476 311-426, looked up)
Inhibin beta A chain: GLECDGKVNICCKKQFFVSFKDIGWNDWIIAPSGYHANYCEGECPSHIAGTSGSSLSFHSTVINHYRMRGHSPFANLKSCCVPTKLRPMSMLYYDDGQNIIKKDIQNMIVEECGCS
notes: TGF-beta family member used at 100 ng/ml to induce definitive endoderm

How the values were obtained:
[1] = test system: hESC line SA002; test: Substituting Activin A with Activin B for induction of endoderm, real-time PCR; format: cell-based, human; conditions: 100 ng/ml with 5 ng/ml bFGF, 5 days
Experimental: Undifferentiated hESC line SA002 were exposed to either activin A (100 ng/ml) or activin B (100 ng/ml) in the presence of 5 ng/ml bFGF for 5 days and analyzed for gene expression.
mRNA expression of Foxa2, Sox17, CXCR4, Sox7, CDX2, MT was measured by real-time PCR using the ABI/TaqMan method. In short, RNA was isolated from the cell cultures by using Qiagen's RNeasy system. cDNA was synthesized by using the ABI high capacity cDNA synthesis kit. RT-PCR was performed in a ABI 7500 by using TaqMan probe. The expression level was normalized to CREBBP expression.

[2] = test system: hBS cells; test: Sox17/Sox7 immunostaining of induced definitive endoderm; format: cell-based, human; conditions: after 4 days in Activin A
Source text: We used Activin A, and Activin A in combination with Wnt3a and/or FGF2 to generate DE. After 4 to 5 days in Stage 1 the hBS cell colony differentiated and genetic markers for early DE were examined using quantitative real-time real time-PCR (Q-PCR). Activin A induced a strong wave of early endoderm at day 3 to 5, and was highlighted by high expression levels of Sox17, HNF3beta (HNF3b or HNF3b) and Cxcr4 expression (FIG. 4) and then reduced to near baseline levels (data not shown). […] Furthermore they up regulate early liver markers like AFP or AAT. At this early stage in differentiation and development, this indicates the presence of extraembryonic endoderm (E×E) in intrinsically differentiating colonies (FIGS. 5 and 10). The expression data were confirmed by co-staining of Sox17/Sox7, Sox17/Cxcr4, Sox17/Oct4, Sox7/HNF3b (data not shown). […] The changes of gene expression after Activin A treatment were associated to morphological changes and distinct differentiation pattern of the colonies (FIG. 2). After 4 to 5 days induction with Activin A containing medium cells gathered together and formed a ring of epithelial cells around the colony. […]
Activin A induces definitive endoderm detected by a combination of Sox17+/Sox7-, 80-90% of the total cells in a Activin A or Activin A/FGF2 treated culture are estimated to be Sox17 positive and negative for Sox7 (manual counting in microscope). […]

| Molecule | extraembryonal (ExE) markers Sox7, CDX2 and MT compared to activin A [1] | mRNA expression of endodermal markers Foxa2, Sox17 and CXCR4 compared to activin A [1] | remaining cells Sox17 positive [2] |
| --- | --- | --- | --- |
| B1 | the same or lower | either the same or even higher |  |
| B2 |  |  | more than 70% |

Reference: patent US8951792B2, “Methods for making definitive endoderm hepatocyte (DE-hep) progenitor cells” (Cellartis AB, priority 2007, dated 2015)
